Reference: publication PMC12946505, “RrMYB2 Regulates Drought Stress via RrJMJ12‐Dependent Epigenetic Modification in Rosa rugosa”

Molecular target: RrJMJ12-C (Rosa rugosa, UniProt A0A2P6P5A5 1371-1493)
Experiment: EMSA; unlabeled cold probe control; EMSA/Gel-Shift Kit (Beyotime) binding buffer, 30 min at 24 C; salt and pH not stated
Conditions: protein: recombinant; tags: GST (pGEX4T-1); label: biotin; blunt

RrJMJ12-C, sequence (A0A2P6P5A5 entry or part of it): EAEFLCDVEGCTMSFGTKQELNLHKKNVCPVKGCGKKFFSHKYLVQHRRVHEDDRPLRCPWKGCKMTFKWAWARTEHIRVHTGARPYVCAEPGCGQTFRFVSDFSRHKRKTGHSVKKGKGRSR

Row | Binder | binding result
1 | Probe4 (dsDNA) DNA 1: ATGACCCCCTTTTGCTCTGCTCTGTCTTTCTAGT DNA 2: ACTAGAAAGACAGAGCAGAGCAAAAGGGGGTCAT | binds
2 | Probe1 (dsDNA) DNA 1: CTCTCTCTCTCTCTCTCTCTGTTTGCGCCAAAACA DNA 2: TGTTTTGGCGCAAACAGAGAGAGAGAGAGAGAGAG | binds
3 | Probe3 (dsDNA) DNA 1: GTCTTATTTTTCTCTGTTTTCTTTTTTGGTATT DNA 2: AATACCAAAAAAGAAAACAGAGAAAAATAAGAC | binds
4 | Probe2 (dsDNA) DNA 1: TTTCTCATGAACCCTCTGCTTTCTCATCTTGGGT DNA 2: ACCCAAGATGAGAAAGCAGAGGGTTCATGAGAAA | binds
5 | Probe5 (dsDNA) DNA 1: TAATTAGGTATCTCTGCTCGAGTTCTTTTG DNA 2: CAAAAGAACTCGAGCAGAGATACCTAATTA | binds
